Paper PMC9352680, “A comprehensive thermodynamic model for RNA binding by the Saccharomyces cerevisiae Pumilio protein PUF4”

T1: PUF4 RNA-binding domain (Saccharomyces cerevisiae, UniProt P25339 537-888)
T1 sequence: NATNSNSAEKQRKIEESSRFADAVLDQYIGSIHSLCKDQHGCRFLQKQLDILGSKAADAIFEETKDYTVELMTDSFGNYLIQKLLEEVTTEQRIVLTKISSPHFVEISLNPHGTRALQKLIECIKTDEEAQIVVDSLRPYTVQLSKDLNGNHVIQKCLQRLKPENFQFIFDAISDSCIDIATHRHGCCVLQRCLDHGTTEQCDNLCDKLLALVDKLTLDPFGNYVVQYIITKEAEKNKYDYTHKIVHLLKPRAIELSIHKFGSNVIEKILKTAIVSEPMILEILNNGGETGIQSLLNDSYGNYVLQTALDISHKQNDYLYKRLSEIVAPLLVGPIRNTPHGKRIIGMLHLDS

B1: Id_ii_S4_P3E.2_K3.1_C3.2_[C-2T]_H3.1_A3.1_F3.1_T3.2_[T9A]_[A10C] (ssRNA)
RNA: UUUGACAACUGAUCGUUCUUUCUUUUGUAUAUAACUUCUUUCUCGAUCAGUUGUCUUU
B2: Id_ii_S4_P3E.2_K3.1_C3.2_[C-2T]_H3.1_A3.1_F3.1_T3.2_[T9A] (ssRNA)
RNA: UUUGACAACUGAUCGUUCUUUCUUUUGUAUAUAAAUUCUUUCUCGAUCAGUUGUCUUU
B3: Id_ii_S4_P3E.2_K3.1_C3.2_[C-2A]_[T-1A]_H3.1_A3.1_F3.1_T3.2_[T9A]_[A10C] (ssRNA)
RNA: UUUGACAACUGAUCGUUCUUUCUAAUGUAUAUAACUUCUUUCUCGAUCAGUUGUCUUU
B4: Id_ii_S4_P3E.2_K3.1_C3.2_[C-2A]_H3.1_A3.1_F3.1_T3.2_[T9A] (ssRNA)
RNA: UUUGACAACUGAUCGUUCUUUCUAUUGUAUAUAAAUUCUUUCUCGAUCAGUUGUCUUU
B5: Id_ii_S4_P3E.2_K3.1_C3.2_[C-2T]_H3.1_A3.1_F3.1_T3.2_[A10C] (ssRNA)
RNA: UUUGACAACUGAUCGUUCUUUCUUUUGUAUAUAUCUUCUUUCUCGAUCAGUUGUCUUU
B6: Id_ii_S4_P3E.2_K3.1_C3.2_[C-2A]_[T-1A]_H3.1_A3.1_F3.1_T3.2_[A10G] (ssRNA)
RNA: UUUGACAACUGAUCGUUCUUUCUAAUGUAUAUAUGUUCUUUCUCGAUCAGUUGUCUUU
B7: Id_ii_S4_P3E.2_K3.1_C3.2_[C-2A]_[T-1G]_H3.1_A3.1_F3.1_T3.2_[T9A]_[A10G] (ssRNA)
RNA: UUUGACAACUGAUCGUUCUUUCUAGUGUAUAUAAGUUCUUUCUCGAUCAGUUGUCUUU
B8: Id_ii_S4_P3E.2_K3.1_C3.2_[C-2A]_[T-1C]_H3.1_A3.1_F3.1_T3.2_[A10G] (ssRNA)
RNA: UUUGACAACUGAUCGUUCUUUCUACUGUAUAUAUGUUCUUUCUCGAUCAGUUGUCUUU
B9: Id_ii_S4_P3E.2_K3.1_C3.2_[C-2A]_[T-1A]_H3.1_A3.1_F3.1_T3.2_[T9A]_[A10G] (ssRNA)
RNA: UUUGACAACUGAUCGUUCUUUCUAAUGUAUAUAAGUUCUUUCUCGAUCAGUUGUCUUU
B10: Id_ii_S4_P3E.2_K3.1_C3.2_[T-1G]_H3.1_A3.1_F3.1_T3.2_[T9C]_[A10C] (ssRNA)
RNA: UUUGACAACUGAUCGUUCUUUCUCGUGUAUAUACCUUCUUUCUCGAUCAGUUGUCUUU
B11: Id_ii_S4_P3E.2_K3.1_C3.2_[C-2A]_H3.1_A3.1_F3.1_T3.2_[A10G] (ssRNA)
RNA: UUUGACAACUGAUCGUUCUUUCUAUUGUAUAUAUGUUCUUUCUCGAUCAGUUGUCUUU
B12: Id_ii_S4_P3E.2_K3.1_C3.2_[C-2T]_H3.1_A3.1_F3.1_T3.2_[A10T] (ssRNA)
RNA: UUUGACAACUGAUCGUUCUUUCUUUUGUAUAUAUUUUCUUUCUCGAUCAGUUGUCUUU
B13: Id_ii_S4_P3E.2_K3.1_C3.2_[C-2A]_[T-1C]_H3.1_A3.1_F3.1_T3.2_[A10C] (ssRNA)
RNA: UUUGACAACUGAUCGUUCUUUCUACUGUAUAUAUCUUCUUUCUCGAUCAGUUGUCUUU
B14: Id_ii_S4_P3E.2_K3.1_C3.2_[C-2A]_[T-1G]_H3.1_A3.1_F3.1_T3.2_[T9A] (ssRNA)
RNA: UUUGACAACUGAUCGUUCUUUCUAGUGUAUAUAAAUUCUUUCUCGAUCAGUUGUCUUU
B15: Id_ii_S4_P3E.2_K3.1_C3.2_[C-2A]_H3.1_A3.1_F3.1_T3.2_[A10T] (ssRNA)
RNA: UUUGACAACUGAUCGUUCUUUCUAUUGUAUAUAUUUUCUUUCUCGAUCAGUUGUCUUU
B16: Id_ii_S4_P3E.2_K3.1_C3.2_[C-2T]_H3.1_A3.1_F3.1_T3.2 (ssRNA)
RNA: UUUGACAACUGAUCGUUCUUUCUUUUGUAUAUAUAUUCUUUCUCGAUCAGUUGUCUUU
B17: Id_ii_S4_P3E.2_K3.1_C3.2_[C-2A]_H3.1_A3.1_F3.1_T3.2_[T9A]_[A10G] (ssRNA)
RNA: UUUGACAACUGAUCGUUCUUUCUAUUGUAUAUAAGUUCUUUCUCGAUCAGUUGUCUUU
B18: Id_ii_S4_P3E.2_K3.1_C3.2_[C-2A]_[T-1C]_H3.1_A3.1_F3.1_T3.2_[A10T] (ssRNA)
RNA: UUUGACAACUGAUCGUUCUUUCUACUGUAUAUAUUUUCUUUCUCGAUCAGUUGUCUUU
B19: Id_ii_S4_P3E.2_K3.1_C3.2_[C-2A]_[T-1C]_H3.1_A3.1_F3.1_T3.2_[T9A]_[A10T] (ssRNA)
RNA: UUUGACAACUGAUCGUUCUUUCUACUGUAUAUAAUUUCUUUCUCGAUCAGUUGUCUUU

Target: T1, PUF4 RNA-binding domain
Assay: Mg; RNA-MaP; 20 mM Na-HEPES pH 7.4, 30 mM KOAc, 0.75 mM MgCl2, 0.1% Tween-20, 5% glycerol, 0.1 mg/mL BSA, 2 mM DTT; 25 C; 0.0125-409.6 nM protein
Conditions: tags: N-His6-TEV cleaved; C-SNAP kept, Cy3B-labelled; label: tethered on chip by stalled RNA polymerase

Row | Binder | Kd
1 | UCUCUUCGUACUAUUAUCUCUU (ssRNA) [Ib_S1_P5E.1_K5.1_C5.1_H5.1_[T1C]_A5.1_[T5C]_F5.1_T5.1] | 592 nM
2 | UCUCUUUGACUUAUUAUCUCUU (ssRNA) [Ib_S1_P5E.1_K5.1_C5.1_H5.1_[T3A]_[A4C]_A5.1_F5.1_T5.1] | > 2300 nM
3 | B1 | 4.42 nM
4 | B2 | 6.6 nM
5 | B3 | 9.36 nM
6 | B4 | 11.8 nM
7 | B5 | 1.81 nM
8 | B6 | 7.52 nM
9 | B7 | 9.13 nM
10 | B8 | 39.2 nM
11 | B9 | 13.3 nM
12 | B10 | 11.3 nM
13 | B11 | 10.6 nM
14 | B12 | 1.75 nM
15 | B13 | 2.26 nM
16 | B14 | 10.8 nM
17 | B15 | 2.72 nM
18 | B16 | 2.14 nM
19 | B17 | 10.2 nM
20 | B18 | 2.68 nM
21 | B19 | 2.65 nM
